In publication PMC314469, “Protein Interaction Networks by Proteome Peptide Scanning” (PLoS Biology, 2004) one finds normalised SPOT signal, Boehringer light units (BLU); mean over the file's lines of this peptide data, which are given here for seven molecules.

T1: Rvs167 SH3 (RV167_YEAST), P39743
T1 chain: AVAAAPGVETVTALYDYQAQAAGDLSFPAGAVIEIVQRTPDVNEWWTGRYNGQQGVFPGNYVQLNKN

T2: Boi2 SH3 (BOI2_YEAST), P39969
T2 chain: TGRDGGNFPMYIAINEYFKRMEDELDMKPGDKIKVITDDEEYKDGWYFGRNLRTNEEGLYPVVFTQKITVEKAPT

T3: Yhr016c SH3 (YSC84_YEAST), P32793
T3 chain: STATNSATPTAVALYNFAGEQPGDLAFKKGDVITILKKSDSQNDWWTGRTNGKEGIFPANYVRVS

T4: Myo5 SH3 (MYO5_YEAST), Q04439
T4 chain: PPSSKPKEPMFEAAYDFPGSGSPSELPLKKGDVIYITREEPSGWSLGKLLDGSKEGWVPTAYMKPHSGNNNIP

T5: Yfr024 SH3 (LSB3_YEAST), P43603
T5 chain: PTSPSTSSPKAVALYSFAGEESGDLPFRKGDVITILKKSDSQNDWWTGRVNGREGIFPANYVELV

T6: Boi1 SH3 (BOI1_YEAST), P38041
T6 chain: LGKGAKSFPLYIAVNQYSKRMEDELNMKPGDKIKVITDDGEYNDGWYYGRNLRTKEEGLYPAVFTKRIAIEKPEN

Sho1 SH3 (SHO1_YEAST), P40073, sequence (P40073 295-366): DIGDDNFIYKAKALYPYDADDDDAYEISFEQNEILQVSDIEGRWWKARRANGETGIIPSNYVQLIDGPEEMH

The target in one experiment is T1, Rvs167 SH3 (RV167_YEAST), P39743. The experiment can be described thus: SPOT array.
In turn, LAPKREAPKPPANT [YJL095W 802-815] came in with a normalised SPOT signal, Boehringer light units (BLU); mean over the file's lines of this peptide of 69.8.

Molecule LAAHKTKPSIPPKK [YPR171W 350-363] yielded a normalised SPOT signal, Boehringer light units (BLU); mean over the file's lines of this peptide of 16.5.

Consider KVQIKKVPTDPSSS [YBR136W 25-38], for which the normalised SPOT signal, Boehringer light units (BLU); mean over the file's lines of this peptide was found to be 44.5.

For the molecule LAYERPLPDLPSTI [YKR027W 747-760], the normalised SPOT signal, Boehringer light units (BLU); mean over the file's lines of this peptide was determined as 3530.

Molecule LAGIRLVPVLPILL [YLR235C 75-88] displayed a normalised SPOT signal, Boehringer light units (BLU); mean over the file's lines of this peptide of 12800.

KVNFRRIPTGPDSP [YIL131C 136-149] registered a normalised SPOT signal, Boehringer light units (BLU); mean over the file's lines of this peptide of 160.

Consider KYIIKTEPESPEED [YLR133W 510-523], for which the normalised SPOT signal, Boehringer light units (BLU); mean over the file's lines of this peptide is 34.

The next experiment has as its target Sho1 SH3 (SHO1_YEAST), P40073. The experiment can be described thus: SPOT array.
The molecule LAPKREAPKPPANT [YJL095W 802-815] gave a normalised SPOT signal, Boehringer light units (BLU); mean over the file's lines of this peptide of 71.2.

Molecule LAAHKTKPSIPPKK [YPR171W 350-363] displayed a normalised SPOT signal, Boehringer light units (BLU); mean over the file's lines of this peptide of 76.5.

KVQIKKVPTDPSSS [YBR136W 25-38] showed a normalised SPOT signal, Boehringer light units (BLU); mean over the file's lines of this peptide of 28.2.

LAYERPLPDLPSTI [YKR027W 747-760] gave a normalised SPOT signal, Boehringer light units (BLU); mean over the file's lines of this peptide of 64100.

The molecule LAGIRLVPVLPILL [YLR235C 75-88] had a normalised SPOT signal, Boehringer light units (BLU); mean over the file's lines of this peptide of 22.2.

Turning to KVNFRRIPTGPDSP [YIL131C 136-149], the normalised SPOT signal, Boehringer light units (BLU); mean over the file's lines of this peptide was 119.

KYIIKTEPESPEED [YLR133W 510-523]: the normalised SPOT signal, Boehringer light units (BLU); mean over the file's lines of this peptide turned out to be 55.5.

A further experiment has as its target T2, Boi2 SH3 (BOI2_YEAST), P39969. Put plainly: SPOT array.
As to LAPKREAPKPPANT [YJL095W 802-815], the normalised SPOT signal, Boehringer light units (BLU); mean over the file's lines of this peptide was 28.5.

The molecule LAAHKTKPSIPPKK [YPR171W 350-363] yielded a normalised SPOT signal, Boehringer light units (BLU); mean over the file's lines of this peptide of 18.8.

KVQIKKVPTDPSSS [YBR136W 25-38] displayed a normalised SPOT signal, Boehringer light units (BLU); mean over the file's lines of this peptide of 64.7.

Consider LAYERPLPDLPSTI [YKR027W 747-760], for which the normalised SPOT signal, Boehringer light units (BLU); mean over the file's lines of this peptide amounted to 14.3.

Molecule LAGIRLVPVLPILL [YLR235C 75-88] registered a normalised SPOT signal, Boehringer light units (BLU); mean over the file's lines of this peptide of 22.4.

For the molecule KVNFRRIPTGPDSP [YIL131C 136-149], the normalised SPOT signal, Boehringer light units (BLU); mean over the file's lines of this peptide stood at 24.3.

In turn, KYIIKTEPESPEED [YLR133W 510-523] showed a normalised SPOT signal, Boehringer light units (BLU); mean over the file's lines of this peptide of 39.6.

In another experiment the target is T3, Yhr016c SH3 (YSC84_YEAST), P32793. Put plainly: SPOT array.
In the case of LAPKREAPKPPANT [YJL095W 802-815], the normalised SPOT signal, Boehringer light units (BLU); mean over the file's lines of this peptide worked out at 29.7.

Consider LAAHKTKPSIPPKK [YPR171W 350-363], for which the normalised SPOT signal, Boehringer light units (BLU); mean over the file's lines of this peptide is 36.

KVQIKKVPTDPSSS [YBR136W 25-38] came in with a normalised SPOT signal, Boehringer light units (BLU); mean over the file's lines of this peptide of 13.5.

LAYERPLPDLPSTI [YKR027W 747-760] yielded a normalised SPOT signal, Boehringer light units (BLU); mean over the file's lines of this peptide of 8470.

On to LAGIRLVPVLPILL [YLR235C 75-88], for which the normalised SPOT signal, Boehringer light units (BLU); mean over the file's lines of this peptide turned out to be 493.

As for KVNFRRIPTGPDSP [YIL131C 136-149], the normalised SPOT signal, Boehringer light units (BLU); mean over the file's lines of this peptide came out at 44.4.

Molecule KYIIKTEPESPEED [YLR133W 510-523] gave a normalised SPOT signal, Boehringer light units (BLU); mean over the file's lines of this peptide of 34.1.

The target in a further experiment is T4, Myo5 SH3 (MYO5_YEAST), Q04439. The experiment can be described thus: SPOT array.
Molecule LAPKREAPKPPANT [YJL095W 802-815] gave a normalised SPOT signal, Boehringer light units (BLU); mean over the file's lines of this peptide of 116000.

LAAHKTKPSIPPKK [YPR171W 350-363]: the normalised SPOT signal, Boehringer light units (BLU); mean over the file's lines of this peptide turned out to be 249.

In turn, KVQIKKVPTDPSSS [YBR136W 25-38] showed a normalised SPOT signal, Boehringer light units (BLU); mean over the file's lines of this peptide of 191.

With LAYERPLPDLPSTI [YKR027W 747-760], the normalised SPOT signal, Boehringer light units (BLU); mean over the file's lines of this peptide was determined as 132.

LAGIRLVPVLPILL [YLR235C 75-88] returned a normalised SPOT signal, Boehringer light units (BLU); mean over the file's lines of this peptide of 152.

Regarding KVNFRRIPTGPDSP [YIL131C 136-149], the normalised SPOT signal, Boehringer light units (BLU); mean over the file's lines of this peptide amounted to 503.

Consider KYIIKTEPESPEED [YLR133W 510-523], for which the normalised SPOT signal, Boehringer light units (BLU); mean over the file's lines of this peptide was found to be 246.

The target of a further experiment is T5, Yfr024 SH3 (LSB3_YEAST), P43603. Put plainly: SPOT array.
With LAPKREAPKPPANT [YJL095W 802-815], the normalised SPOT signal, Boehringer light units (BLU); mean over the file's lines of this peptide came out at 47.5.

On to LAAHKTKPSIPPKK [YPR171W 350-363], for which the normalised SPOT signal, Boehringer light units (BLU); mean over the file's lines of this peptide was found to be 1730.

As for KVQIKKVPTDPSSS [YBR136W 25-38], the normalised SPOT signal, Boehringer light units (BLU); mean over the file's lines of this peptide came to 9.9.

In turn, LAYERPLPDLPSTI [YKR027W 747-760] yielded a normalised SPOT signal, Boehringer light units (BLU); mean over the file's lines of this peptide of 4460.

LAGIRLVPVLPILL [YLR235C 75-88] showed a normalised SPOT signal, Boehringer light units (BLU); mean over the file's lines of this peptide of 2480.

With KVNFRRIPTGPDSP [YIL131C 136-149], the normalised SPOT signal, Boehringer light units (BLU); mean over the file's lines of this peptide stood at 234.

KYIIKTEPESPEED [YLR133W 510-523] returned a normalised SPOT signal, Boehringer light units (BLU); mean over the file's lines of this peptide of 6.9.

A further experiment has as its target T6, Boi1 SH3 (BOI1_YEAST), P38041. Put plainly: SPOT array.
Turning to LAPKREAPKPPANT [YJL095W 802-815], the normalised SPOT signal, Boehringer light units (BLU); mean over the file's lines of this peptide turned out to be 179.

Consider LAAHKTKPSIPPKK [YPR171W 350-363], for which the normalised SPOT signal, Boehringer light units (BLU); mean over the file's lines of this peptide worked out at 477.

KVQIKKVPTDPSSS [YBR136W 25-38] showed a normalised SPOT signal, Boehringer light units (BLU); mean over the file's lines of this peptide of 1460.

As for LAYERPLPDLPSTI [YKR027W 747-760], the normalised SPOT signal, Boehringer light units (BLU); mean over the file's lines of this peptide was 41.8.

In turn, LAGIRLVPVLPILL [YLR235C 75-88] yielded a normalised SPOT signal, Boehringer light units (BLU); mean over the file's lines of this peptide of 63.1.

For KVNFRRIPTGPDSP [YIL131C 136-149], the normalised SPOT signal, Boehringer light units (BLU); mean over the file's lines of this peptide worked out at 1120.

KYIIKTEPESPEED [YLR133W 510-523]: the normalised SPOT signal, Boehringer light units (BLU); mean over the file's lines of this peptide was 100.
